In paper PMC2064084:

Target: GST–tubulin tails (ending in either Tyr or Glu)
Test: pull-down

B1: E442Q Spastin (enzyme)
chain: ESGAVPKRKDPLTHTSNSLPRSKTVMKTGSAGLSGHHRAPSYSGLSMVSGVKQGSGPAPTTHKGTPKTNRTNKPSTPTTATRKKKDLKNFRNVDSNLANLIMNEIVDNGTAVKFDDIAGQDLAKQALQEIVILPSLRPELFTGLRAPARGLLLFGPPGNGKTMLAKAVAAESNATFFNISAASLTSKYVGEGEKLVRALFAVARELQPSIIFIDQVDSLLCERREGEHDASRRLKTEFLIEFDGVQSAGDDRVLVMGATNRPQELDEAVLRRFIKRVYVSLPNEETRLLLLKNLLCKQGSPLTQKELAQLARMTDGYSGSDLTALAKDAALGPIRELKPEQVKNMSASEMRNIRLSDFTESLKKIKRSVSPQTLEAYIRWNKDFGDTTV
Work on B1 yielded a percent of the Spastin bound of 25 to 33%.
